In paper PMC11533990 one finds stoichiometry N data, which are given here for 1 substance.

In this test the target is Full-length wild-type (WT) OaPAC, photoactivated adenylate cyclase from Oscillatoria acuminata (Oscillatoria acuminata). Nature of the test: crystal structure; serial femtosecond crystallography (SFX) at the European XFEL, room temperature (294 K), microcrystals grown in 0.06 M divalents (MgCl2/CaCl2), 0.1 M Tris-Bicine pH 8.5, 30% PEG 550 MME/PEG 20 000; space group P2(1)2(1)2, one monomer in the asymmetric unit, dimer by crystal symmetry; 1.75 A.

What is called stoichiometry N is the number of molecules, sites or subunits per partner or assembly.

In turn, “Full-length wild-type (WT) OaPAC, photoactivated adenylate cyclase from Oscillatoria acuminata (enzyme)” registered a stoichiometry N of 2.
